The labels stand for the following.
B1: human phosphorylase kinase β subunit (PHKB), dephosphorylated (natural protein, UniProt Q93100 1-1093, looked up)
chain: MAGAAGLTAEVSWKVLERRARTKRSGSVYEPLKSINLPRPDNETLWDKLDHYYRIVKSTLLLYQSPTTGLFPTKTCGGDQKAKIQDSLYCAAGAWALALAYRRIDDDKGRTHELEHSAIKCMRGILYCYMRQADKVQQFKQDPRPTTCLHSVFNVHTGDELLSYEEYGHLQINAVSLYLLYLVEMISSGLQIIYNTDEVSFIQNLVFCVERVYRVPDFGVWERGSKYNNGSTELHSSSVGLAKAALEAINGFNLFGNQGCSWSVIFVDLDAHNRNRQTLCSLLPRESRSHNTDAALLPCISYPAFALDDEVLFSQTLDKVVRKLKGKYGFKRFLRDGYRTSLEDPNRCYYKPAEIKLFDGIECEFPIFFLYMMIDGVFRGNPKQVQEYQDLLTPVLHHTTEGYPVVPKYYYVPADFVEYEKNNPGSQKRFPSNCGRDGKLFLWGQALYIIAKLLADELISPKDIDPVQRYVPLKDQRNVSMRFSNQGPLENDLVVHVALIAESQRLQVFLNTYGIQTQTPQQVEPIQIWPQQELVKAYLQLGINEKLGLSGRPDRPIGCLGTSKIYRILGKTVVCYPIIFDLSDFYMSQDVFLLIDDIKNALQFIKQYWKMHGRPLFLVLIREDNIRGSRFNPILDMLAALKKGIIGGVKVHVDRLQTLISGAVVEQLDFLRISDTEELPEFKSFEELEPPKHSKVKRQSSTPSAPELGQQPDVNISEWKDKPTHEILQKLNDCSCLASQAILLGILLKREGPNFITKEGTVSDHIERVYRRAGSQKLWLAVRYGAAFTQKFSSSIAPHITTFLVHGKQVTLGAFGHEEEVISNPLSPRVIQNIIYYKCNTHDEREAVIQQELVIHIGWIISNNPELFSGMLKIRIGWIIHAMEYELQIRGGDKPALDLYQLSPSEVKQLLLDILQPQQNGRCWLNRRQIDGSLNRTPTGFYDRVWQILERTPNGIIVAGKHLPQQPTLSDMTMYEMNFSLLVEDTLGNIDQPQYRQIVVELLMVVSIVLERNPELEFQDKVDLDRLVKEAFNEFQKDQSRLKEIEKQDDMTSFYNTPPLGKRGTCSYLTKAVMNLLLEGEVKPNNDDPCLIS
B2: human muscle phosphorylase kinase γ subunit (PHKG1) (enzyme)
chain: not shown
B3: human muscle glycogen phosphorylase (PYGM) (enzyme, UniProt P11217 1-842, looked up)
chain: MSRPLSDQEKRKQISVRGLAGVENVTELKKNFNRHLHFTLVKDRNVATPRDYYFALAHTVRDHLVGRWIRTQQHYYEKDPKRIYYLSLEFYMGRTLQNTMVNLALENACDEATYQLGLDMEELEEIEEDAGLGNGGLGRLAACFLDSMATLGLAAYGYGIRYEFGIFNQKISGGWQMEEADDWLRYGNPWEKARPEFTLPVHFYGHVEHTSQGAKWVDTQVVLAMPYDTPVPGYRNNVVNTMRLWSAKAPNDFNLKDFNVGGYIQAVLDRNLAENISRVLYPNDNFFEGKELRLKQEYFVVAATLQDIIRRFKSSKFGCRDPVRTNFDAFPDKVAIQLNDTHPSLAIPELMRILVDLERMDWDKAWDVTVRTCAYTNHTVLPEALERWPVHLLETLLPRHLQIIYEINQRFLNRVAAAFPGDVDRLRRMSLVEEGAVKRINMAHLCIAGSHAVNGVARIHSEILKKTIFKDFYELEPHKFQNKTNGITPRRWLVLCNPGLAEVIAERIGEDFISDLDQLRKLLSFVDDEAFIRDVAKVKQENKLKFAAYLEREYKVHINPNSLFDIQVKRIHEYKRQLLNCLHVITLYNRIKREPNKFFVPRTVMIGGKAAPGYHMAKMIIRLVTAIGDVVNHDPAVGDRLRVIFLENYRVSLAEKVIPAADLSEQISTAGTEASGTGNMKFMLNGALTIGTMDGANVEMAEEAGEENFFIFGMRVEDVDKLDQRGYNAQEYYDRIPELRQVIEQLSSGFFSPKQPDLFKDIVNMLMHHDRFKVFADYEDYIKCQEKVSALYKNPREWTRMVIRNIATSGKFSSDRTIAQYAREIWGVEPSRQRLPAPDEAI

The series “cryo-EM structure” deals with the molecule itself. Put plainly: cryo-EM structure.
Series [1] addresses human calmodulin, δ subunit of phosphorylase kinase (human, UniProt P0DP25 1-149). Put plainly: cryo-EM structure.
The target of series [2] is B3. Put plainly: cross-linking.
Series [3] has as its target T1, human muscle phosphorylase kinase α subunit (PHKA1), dephosphorylated (human, UniProt P46020 1-1223).
T1 sequence (looked up): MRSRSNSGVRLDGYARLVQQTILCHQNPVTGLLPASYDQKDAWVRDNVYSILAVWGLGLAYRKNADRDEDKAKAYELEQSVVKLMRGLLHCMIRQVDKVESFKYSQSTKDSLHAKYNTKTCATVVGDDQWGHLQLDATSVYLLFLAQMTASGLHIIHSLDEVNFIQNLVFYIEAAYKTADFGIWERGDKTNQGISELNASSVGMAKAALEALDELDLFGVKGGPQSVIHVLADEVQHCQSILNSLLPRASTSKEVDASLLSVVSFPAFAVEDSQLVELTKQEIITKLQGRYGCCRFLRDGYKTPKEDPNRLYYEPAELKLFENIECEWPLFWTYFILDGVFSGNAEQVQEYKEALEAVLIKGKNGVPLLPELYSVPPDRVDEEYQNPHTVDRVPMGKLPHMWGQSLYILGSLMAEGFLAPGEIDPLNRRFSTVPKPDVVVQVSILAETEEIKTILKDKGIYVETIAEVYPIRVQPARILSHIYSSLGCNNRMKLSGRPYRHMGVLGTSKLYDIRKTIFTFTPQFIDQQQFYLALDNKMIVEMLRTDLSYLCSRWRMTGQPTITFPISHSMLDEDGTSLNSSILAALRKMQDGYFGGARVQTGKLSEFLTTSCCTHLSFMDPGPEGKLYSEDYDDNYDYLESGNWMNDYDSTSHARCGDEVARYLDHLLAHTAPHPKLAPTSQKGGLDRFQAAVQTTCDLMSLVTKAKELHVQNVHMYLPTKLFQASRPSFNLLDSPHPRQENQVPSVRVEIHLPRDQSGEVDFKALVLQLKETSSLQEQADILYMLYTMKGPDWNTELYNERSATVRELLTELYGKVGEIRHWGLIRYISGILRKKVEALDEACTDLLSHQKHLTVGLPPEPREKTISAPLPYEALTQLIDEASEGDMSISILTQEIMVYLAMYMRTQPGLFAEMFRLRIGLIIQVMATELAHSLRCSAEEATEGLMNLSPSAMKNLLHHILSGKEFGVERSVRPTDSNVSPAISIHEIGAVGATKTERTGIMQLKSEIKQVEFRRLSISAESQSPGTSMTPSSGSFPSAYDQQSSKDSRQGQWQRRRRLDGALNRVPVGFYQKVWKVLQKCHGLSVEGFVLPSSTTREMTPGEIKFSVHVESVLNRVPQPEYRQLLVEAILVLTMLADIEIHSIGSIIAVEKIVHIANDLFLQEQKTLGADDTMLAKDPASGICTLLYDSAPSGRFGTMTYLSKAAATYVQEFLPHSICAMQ
The series can be described thus: cross-linking.

Series [4] has as its target B1. The series can be described thus: cross-linking.

In general, stoichiometry N refers to a count of units in the complex or per binding partner. Turning to B1, the “stoichiometry N” value in “cryo-EM structure” was 4.

Regarding B2, the binding result in series [1] and in series [2] was “binds” each time.

In the case of B3, the binding result in series [3] and in series [4] was “binds” each time.
